Tests used:
[1] = biological target: T1, Human ROR1 protein (UniProt Q01973-1) (human, UniProt Q01973 30-937); test: flow cytometry on A549 cells (ROR1+)
T1 construct: Endogenous ROR1 of human tumour cell lines; also called ROR1 on A549, Raji (RAJI) and MCF7 cells; cognate antigen expressed at the surface of cells
Description: Flow cytometry was used to test antibody binding to adenocarcinomic human alveolar basal epithelial cell line A549 (ROR1+) and immortalized line of human T lymphocyte cell line Jurkat (ROR1 negative), using various anti-ROR1 antibodies. The cells were prepared at concentration of 1×10⁶/ml in FACS buffer (PBS, 2% FBS, and 0.05% azide). Cells were plated at 30 μl/well in a V-bottom 96-well plate. Anti-ROR1 antibodies (with RO6D8wt used as control) were diluted in FACS buffer (5X serial dilution starting from 50 μg/ml) and 30 μl was added to each well with either A549 or Jurkat cells for 60 min on ice. After incubation, the cells were centrifuged at 2000 rpm for 5 minutes, flip out supernatant. After 1 wash with 200 μL/well of FACS buffer, cells were incubated with an AF647 goat anti-human Fab2 antibody (Jackson ImmunoResearch; Cat. No. 109-606-088) (dilution 1:2000 in FACS buffer) at 50 μL/well for 40 min on ice. After incubation, the cells were centrifuged at 2000 rpm for 5 minutes, flip out supernatant. After 1 wash with 200 μL/well of FACS buffer cells were resuspended in 30 μl of FACS buffer and acquired by flow cytometry using IntelliCyt readout.

[2] = biological target: T2, Recombinant truncated human his-tag ROR1 Ig-like domain (human, UniProt Q01973 39-151); test: ELISA, antibody coated at 5 ug/mL, his-tagged antigen at 2 ug/ml, anti-his HRP
T2 construct: also called human his-tag ROR1 Ig-like domain C-his; human ROR1 Ig-like domain
T2 sequence (Q01973 other isoform, or with tags, fused parts or gaps limits assumed): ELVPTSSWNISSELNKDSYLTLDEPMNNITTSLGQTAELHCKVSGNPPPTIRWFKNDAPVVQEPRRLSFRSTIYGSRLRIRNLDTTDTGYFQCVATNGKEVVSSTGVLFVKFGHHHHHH
Description: (§1) Cross-reactivity of the anti-human ROR1 antibodies with his-tagged ROR1 recombinant protein from human and mouse, were analyzed by ELISA assay. The antibodies 5 μg/mL (RO6D8wt, RO6D8-s10, RO6D8-glv1011, RO6D8-jlv1011, RO6D8-1v1011) were diluted with PBS buffer and coated on a plate at 50 μL per well or control buffers coated on a plate at 50 μL per well. The plate was washed three times with 150 μL/well of PBS-T (PBSIX supplemented with 0.05% Tween 20). Subsequently, the plate was blocked with 100 μL/well of blocking buffer (blocker Casein in PBS from Bioworld, Cat. No. 40320020-2) for 1 hour at RT. The plates were washed 3 times with 150 μL/well of PBS-T, after blocking. Recombinant mouse his-tag ROR1, 2 μg/ml (Acro Biosystems Cat. No. RO1-M5221, Lot: 1201-48ESI-65), human his-tag ROR1 extracellular domain (SEQ ID NO:2), 1 μg/ml (Acro Biosystems Cat. No. RO1-H522Y, lot: C81-76KF1-FR), human his-tag ROR1 Ig-like domain C-his, 2 μg/ml (Acro Biosystems Cat. No. RO1-H5221, Lot: B311-59SSI-CA), human his-tag CD138, 2 μg/ml (Sino Cat. No. 11429-H08H, Lot: LCL07NO0412) (negative control antibody), and Casein/PBS buffer (control). 30 μl of his-tagged ROR1 antigen, his tagged CD138 or Casein/PBS buffer were added to the plate, per well, and incubated for 1 hour at room temperature. The plate was washed three times with 150 μL/well of PBS-T and anti 6x-his (SEQ ID NO:58) tag antibody HRP (Abcam; Cat. No. Ab1187) was incubated at dilution 1:5,000, 30 μL/well for 1 hour at RT. […] The signal was stopped at the desired saturation point by using 15 μL/well of 2 N sulfuric acid (H₂SO₄) stop solution and read on a plate reader at 450 nm.

[3] = biological target: T3, Recombinant truncated human his-tag ROR1 extracellular domain protein (human, UniProt Q01973 30-403); test: SPR (Biacore T200), antibody captured by anti-human Fc, his-tagged ROR1 ECD as analyte
T3 construct: the tag is part of the entry; also called his-tagged ROR1 protein; human ROR1 ECD
T3 sequence (Q01973 other isoform, or with tags, fused parts or gaps limits assumed): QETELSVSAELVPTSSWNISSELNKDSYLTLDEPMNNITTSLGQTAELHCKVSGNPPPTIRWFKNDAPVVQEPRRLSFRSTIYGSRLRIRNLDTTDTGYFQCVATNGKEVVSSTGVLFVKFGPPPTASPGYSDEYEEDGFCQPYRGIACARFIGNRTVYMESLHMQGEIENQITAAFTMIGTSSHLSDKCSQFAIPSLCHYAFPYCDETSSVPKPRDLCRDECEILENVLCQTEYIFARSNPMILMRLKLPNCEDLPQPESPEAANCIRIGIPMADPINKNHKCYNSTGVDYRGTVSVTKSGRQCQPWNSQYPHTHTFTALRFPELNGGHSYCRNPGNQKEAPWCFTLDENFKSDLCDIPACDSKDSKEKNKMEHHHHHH
Description: Binding kinetics of anti-ROR1 antibodies with his-tagged ROR1 protein were measured using surface plasmon resonance (SPR). The anti-ROR1 antibodies tested included proprietary antibodies RO6D8 wt, RO6D8-s10, RO6D8-jlv1011, and RO6D8-011. Anti-human fragment crystallizable region (Fc region) antibody was immobilized on a CM5 sensor chip to approximately 8,000 RU using standard N-hydroxysuccinimide/N-Ethyl-N′-(3-dimethylaminopropyl) carbodiimide hydrochloride (NHS/EDC) coupling methodology. The anti-ROR1 antibodies (1-2 μg/mL) were captured for 60 seconds at a flow rate of 10 μL/minute. The his-tagged ROR1 protein included amino acid 30 to amino acid 403 of SEQ ID NO: 1 (i.e., SEQ ID NO:2) (Acro Biosystems; Cat. No. RO1-H522Y). This polypeptide was serially diluted in a running buffer of 0.01 M HEPES pH 7.4, 0.15 M NaCl, 3 mM EDTA, 0.05% v/v Surfactant P20 (HBS-EP+) and run at 6 different dilutions. All measurements were conducted in HBS-EP+ buffer with a flow rate of 30 μL/minute. A 1:1 (Langmuir) binding model was used to fit the data. All BIACORE assays were performed at room temperature using Biacore T200 surface plasmon resonance (GE Healthcare).

[4] = biological target: T3, Recombinant truncated human his-tag …; test: ELISA, antibody coated at 5 ug/mL, his-tagged antigen at 1 ug/ml, anti-his HRP
Description: as §1, with “(control).” for “(control). 30 μl of his-tagged ROR1 antigen, his tagged CD138 or Casein/PBS buffer were added to the plate, per well, and incubated for 1 hour at room temperature. The plate was washed three times with 150 μL/well of PBS-T and anti 6x-his (SEQ ID NO:58) tag antibody HRP (Abcam; Cat. No. Ab1187) was incubated at dilution 1:5,000, 30 μL/well for 1 hour at RT.”

[5] = biological target: T1, Human ROR1 protein (UniProt Q01973-1); test: flow cytometry on A549, Raji and MCF7 cells (ROR1+)
Description: Flow cytometry was used to test antibody binding to adenocarcinomic human alveolar basal epithelial cell line A549 (ROR1+), Burkitt's lymphoma cell line RAJI (ROR1+), breast cancer cell line (ROR1+), A549 ROR1-KO cell line (ROR1 knockout) which is ROR1 negative, and Duke's type B adenocarcinoma cell line LS174T (ROR1 negative).
The cells were re-suspended in 120 µL/well of FACS buffer containing Goat anti-human IgG AF647 (1:2,000, Southern Biotech, Cat No. 2040-31, Lot No. D1817-T817C) and plate was incubated for 20 minutes at 4° C. in the dark.
FIGS. 4A-E show anti-human ROR1 antibodies RO6D8-s10, RO6D8-jlv1011, RO6A-a7gm and RO6A-a8gm binding to ROR1-expressing A549 (FIG. 4A), Raji (FIG. 4B), and MCF7 (FIG. 4C) cells; and ROR1 negative A549 ROR1-KO (FIG. 4D) and LS174T (FIG. 4E) cells.

T1 sequence (Q01973 30-937 limits assumed, one chain of several): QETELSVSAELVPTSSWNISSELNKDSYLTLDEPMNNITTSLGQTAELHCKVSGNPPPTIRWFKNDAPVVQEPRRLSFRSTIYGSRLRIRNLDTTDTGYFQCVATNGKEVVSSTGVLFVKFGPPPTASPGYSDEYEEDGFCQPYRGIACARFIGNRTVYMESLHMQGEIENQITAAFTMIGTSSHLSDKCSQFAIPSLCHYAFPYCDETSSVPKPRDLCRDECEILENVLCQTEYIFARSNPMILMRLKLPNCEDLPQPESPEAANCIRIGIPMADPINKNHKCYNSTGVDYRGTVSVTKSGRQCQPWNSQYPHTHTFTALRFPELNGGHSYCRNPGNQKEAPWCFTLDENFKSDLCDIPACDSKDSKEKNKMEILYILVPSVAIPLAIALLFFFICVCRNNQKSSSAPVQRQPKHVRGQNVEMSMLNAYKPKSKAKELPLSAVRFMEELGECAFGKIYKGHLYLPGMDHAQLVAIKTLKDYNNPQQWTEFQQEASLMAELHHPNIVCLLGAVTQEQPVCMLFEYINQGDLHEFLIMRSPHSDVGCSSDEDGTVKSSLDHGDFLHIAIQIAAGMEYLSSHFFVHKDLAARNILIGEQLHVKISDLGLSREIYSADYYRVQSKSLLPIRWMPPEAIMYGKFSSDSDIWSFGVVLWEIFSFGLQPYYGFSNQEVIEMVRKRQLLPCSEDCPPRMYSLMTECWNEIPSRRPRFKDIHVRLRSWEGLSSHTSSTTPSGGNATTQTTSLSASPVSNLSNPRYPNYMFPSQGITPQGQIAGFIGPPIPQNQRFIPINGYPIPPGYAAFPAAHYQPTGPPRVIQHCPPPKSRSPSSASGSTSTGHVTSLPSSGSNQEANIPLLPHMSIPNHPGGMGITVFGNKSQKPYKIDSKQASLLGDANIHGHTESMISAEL

Row | Binder | binding result [1] | binding result [2] | binding result [3] | binding result [4] | binding result [5]
1 | RO6D8-s10 (antibody, V domains shown) VH: QVQLVQSGAEVKKPGASVKVSCKASGYTFTNYYMHWVRQAPGQGLEWMGIINPSGGSTSYAQKFQGRVTMTRDTSTSTVYMELSSLRSEDTAVYYCARSSRSSYYLWVLDLWGQGTTVTVSS VL: AIQMTQSPSSLSASVGDRVTITCRASQGVSTEIAWYQQKPGKAPKLLIYAASSLQSGVPSRFSGSGSGTDFTLTISSLQPEDFATYYCQQFNSYPITFGQGTRLEIK | binds | binds | binds | – | –
2 | RO6D8wt (antibody, V domains shown, it was captured by an anti-human Fc antibody in SPR, so it carries a human Fc; also called wildtype anti-human ROR1 antibody) VH: QVQLVQSGAEVKKPGASVKVSCKASGYTFTNYYMHWVRQAPGQGLEWMGIINPSGGSTSYAQKFQGRVTMTRDTSTSTVYMELSSLRSEDTAVYYCARDSSSWYSGWYFDLWGQGTTVTVSS VL: AIQMTQSPSSLSASVGDRVTITCRASQDVRAHLAWYQQKPGKAPKLLIYAASSLQSGVPSRFSGSGSGTDFTLTISSLQPEDFATYYCQQFNSYPITFGQGTRLEIK | binds | binds | – | binds | –
3 | RO6D8-jlv1011 (antibody, V domains shown) VH: QVQLVQSGAEVKKPGASVKVSCKASGYTFTSKYYHWVRQAPGQGLEWMGIINPTSGSTSYAQKFQGRVTMTRDTSTSTVYMELSSLRSEDTAVYYCARDSSRYSGWYFDLWGQGTTVTVSS VL: AIQLTQSPSSLSASVGDRVTITCRASQGVSTEIAWYQQKPGKAPKLLIYAASSLQSGVPSRFSGSGSGTDFTLTISSLQPEDFATYYCQQYYGYPIAFGQGTRLEIK | binds | binds | binds | – | –
4 | RO6A-a8gm (antibody, V domains shown, it was detected with goat anti-human IgG and compared with an IgG1 isotype control) VH: QVQLVESGGGLVKPGGSLRLSCAASGFTFSDYYMTWIRQAPGKGLEWVSYISGSSAYSNYADSVKGRFTISRDNSKNTLYLQMNSLRAEDTAVYYCARDPLLYGWLTDWGQGTLVTVSS VL: QSALTQPASVSGSPGQSITISCTGTSSDGGGYDSVSWYQQHPGKAPKLMIYDVNKRPSGVSGRFSGSKSGNTASLTISGLQAEDEADYYCSSFTSDVMVFGGGTKLTVL | – | – | – | – | binds
5 | RO6D8-011 (antibody, V domains shown, it was captured by an anti-human Fc antibody in SPR; also called RO6D8-O11) VH: QVQLVQSGAEVKKPGASVKVSCKASGYTFTNYYMHWVRQAPGQGLEWMGIINPTSGRTSYAQKFQGRVTMTRDTSTSTVYMELSSLRSEDTAVYYCARDSSSWYSGWYFDLWGQGTTVTVSS VL: AIQMTQSPSSLSASVGDRVTITCRASQGIRTDLAWYQQKPGKAPKLLIYAASSLQSGVPSRFSGSGSGTDFTLTISSLQPEDFATYYCQQYYGYPIAFGQGTRLEIK | – | – | binds | – | –

Reference: patent publication US20250084163A1 (SORRENTO THERAPEUTICS, published 2025)
